The text below walks through data of patent US20120090043A1, “TARGETS FOR RETROVIRUS ASSOCIATED DISEASES” (priority 2009, published 2012).

Assay [1] concerns HIV-1 LTR promoter transactivation by HIV-1 Tat. Briefly: Transactivation assay, HIV-1 LTR luciferase reporter with HIV-1 Tat. The format is cell-based. The note with it: HEK293 cells co-transfected with pHIV1LTR-Luc, HIV-1 Tat and the human ORF; relative luciferase activity 24 h post-transfection; positive if >=2 or <=0.5 and p<0.05. The text has this:
The plasmids pHIV1LTR-Luc or pHTLV1LTR-Luc containing a luciferase reporter gene under the control of the HIV-1 or HTLV-1 LTR promoters and plasmids expressing either HIV-1 Tat or HTLV-1 Tax and each human ORF found to interact with viral proteins were transfected into 10^4 HEK293 cells using the calcium phosphate method. Twenty-four hours post-transfection, cells were washed three times with PBS, lysed and luciferase activities determined from two independent transfection experiments in triplicate. We computed a paired t-test to assess the difference of the means between samples with and without the human interactor. For a trial to be considered positive, the relative luciferase activities has to be >=2 or <=0.5, and the p-value of the t-test<0.05.
Many HIV/HTLV-human interactions in our data set (130/212) involved the retroviral transactivator proteins HTLV-1 Tax (57/212), HTLV-2 Tax2 (49/212), HIV-1 Tat (10/212) and HIV-2 Tat (14/212). Human proteins interacting with viral transactivators likely influence Tat or Tax transactivation. Expression vectors encoding human ORFs and HIV-1 Tat or HTLV-1 Tax proteins were tested in a transactivation reporter assay against reporter plasmids harboring HIV-1 or HTLV-1 viral promoter sequences cloned upstream of the luciferase reporter gene. In the controls Tat or Tax respectively activated HIV or HTLV LTR-directed gene expression. Co-transfection of interacting human ORFs identified 71 proteins (54% of the 131 human targets in our data set) that regulated HIV (26.7% of targets), HTLV (37.4% of targets) or both (9.9% of targets) LTR promoter activation by Tat or Tax (see Tables 7 and 8; Table 13 below containing quantitative data on the regulation of transactivation). Wherever not expressly specified, constructs used herein were generally made by sub-cloning entry clones from the ORFeome V3.1 into suitable destination vectors.
Background: In a reporter assay the amount or activity of a reporter protein is the signal.

Assay [2] deals with HTLV-1 LTR promoter transactivation by HTLV-1 Tax. Briefly: Transactivation assay, HTLV-1 LTR luciferase reporter with HTLV-1 Tax. It is filed as cell-based. The note with it: HEK293 cells co-transfected with pHTLV1LTR-Luc, HTLV-1 Tax and the human ORF; relative luciferase activity 24 h post-transfection; positive if >=2 or <=0.5 and p<0.05.

B1: TRIP6: human host interactor protein, Gene ID 7205, expressed from transfected ORF vector (protein)
chain: MSGPTWLPPKQPEPARAPQGRAIPRGTPGPPPAHGAALQPHPRVNFCPLPSEQCYQAPGGPEDRGPAWVGSHGVLQHTQGLPADRGGLRPGSLDAEIDLLSSTLAELNGGRGHASRRPDRQAYEPPPPPAYRTGSLKPNPASPLPASPYGGPTPASYTTASTPAGPAFPVQVKVAQPVRGCGPPRRGASQASGPLPGPHFPLPGRGEVWGPGYRSQREPGPGAKEEAAGVSGPAGRGRGGEHGPQVPLSQPPEDELDRLTKKLVHDMNHPPSGEYFGQCGGCGEDVVGDGAGVVALDRVFHVGCFVCSTCRAQLRGQHFYAVERRAYCEGCYVATLEKCATCSQPILDRILRAMGKAYHPGCFTCVVCHRGLDGIPFTVDATSQIHCIEDFHRKFAPRCSVCGGAIMPEPGQEETVRIVALDRSFHIGCYKCEECGLLLSSEGECQGCYPLDGHILCKACSAWRIQELSATVTTDC
The molecule B1 registered an HIV_LTR transactiv. in assay [1] of 2.87 fold change.

B2: C16orf33: human host interactor protein, Gene ID 79622, expressed from transfected ORF vector (protein)
chain: MDVFQEGLAMVVQDPLLCDLPIQVTLEEVNSQIALEYGQAMTVRVCKMDGEVMPVVVVQSATVLDLKKAIQRYVQLKQEREGGIQHISWSYVWRTYHLTSAGEKLTEDRKKLRDYGIRNRDEVSFIKKLRQK
Molecule B2 showed an HIV_LTR transactiv. in assay [1] of 2.50 fold change.

B3: SPAG5: human host interactor protein, Gene ID 10615, expressed from transfected ORF vector (protein)
chain: MWRVKKLSLSLSPSPQTGKPSMRTPLRELTLQPGALTNSGKRSPACSSLTPSLCKLGLQEGSNNSSPVDFVNNKRTDLSSEHFSHSSKWLETCQHESDEQPLDPIPQISSTPKTSEEAVDPLGNYMVKTIVLVPSPLGQQQDMIFEARLDTMAETNSISLNGPLRTDDLVREEVAPCMGDRFSEVAAVSEKPIFQESPSHLLEESPPNPCSEQLHCSKESLSSRTEAVREDLVPSESNAFLPSSVLWLSPSTALAADFRVNHVDPEEEIVEHGAMEEREMRFPTHPKESETEDQALVSSVEDILSTCLTPNLVEMESQEAPGPAVEDVGRILGSDTESWMSPLAWLEKGVNTSVMLENLRQSLSLPSMLRDAAIGTTPFSTCSVGTWFTPSAPQEKSTNTSQTGLVGTKHSTSETEQLLCGRPPDLTALSRHDLEDNLLSSLVILEVLSRQLRDWKSQLAVPHPETQDSSTQTDTSHSGITNKLQHLKESHEMGQALQQARNVMQSWVLISKELISLLHLSLLHLEEDKTTVSQESRRAETLVCCCFDLLKKLRAKLQSLKAEREEARHREEMALRGKDAAEIVLEAFCAHASQRISQLEQDLASMREFRGLLKDAQTQLVGLHAKQEELVQQTVSLTSTLQQDWRSMQLDYTTWTALLSRSRQLTEKLTVKSQQALQERDVAIEEKQEVSRVLEQVSAQLEECKGQTEQLELENSRLATDLRAQLQILANMDSQLKELQSQHTHCAQDLAMKDELLCQLTQSNEEQAAQWQKEEMALKHMQAELQQQQAVLAKEVRDLKETLEFADQENQVAHLELGQVECQLKTTLEVLRERSLQCENLKDTVENLTAKLASTIADNQEQDLEKTRQYSQKLGLLTEQLQSLTLFLQTKLKEKTEQETLLLSTACPPTQEHPLPNDRTFLGSILTAVADEEPESTPVPLLGSDKSAFTRVASMVSLQPAETPGMEESLAEMSIMTTELQSLCSLLQESKEEAIRTLQRKICELQARLQAQEEQHQEVQKAKEADIEKLNQALCLRYKNEKELQEVIQQQNEKILEQIDKSGELISLREEVTHLTRSLRRAETETKVLQEALAGQLDSNCQPMATNWIQEKVWLSQEVDKLRVMFLEMKNEKEKLMIKFQSHRNILEENLRRSDKELEKLDDIVQHIYKTLLSIPEVVRGCKELQGLLEFLS
Turning to B3, in assay [1], the HIV_LTR transactiv. is reported as 0.16 fold change.

B4: TEX11: human host interactor protein, Gene ID 56159, expressed from transfected ORF vector (protein)
chain: MISAHCNLRLLCSSDSSASASQVAGTTEVVENLVTNDNSPNIPEAIDRLFSDIANINRESMAEITDIQIEEMAVNLWNWALTIGGGWLVNEEQKIRLHYVACKLLSMCEASFASEQSIQRLIMMNMRIGKEWLDAGNFLIADECFQAAVASLEQLYVKLIQRSSPEADLTMEKITVESDHFRVLSYQAESAVAQGDFQRASMCVLQCKDMLMRLPQMTSSLHHLCYNFGVETQKNNKYEESSFWLSQSYDIGKMDKKSTGPEMLAKVLRLLATNYLDWDDTKYYDKALNAVNLANKEHLSSPGLFLKMKILLKGETSNEELLEAVMEILHLDMPLDFCLNIAKLLMDHERESVGFHFLTIIHERFKSSENIGKVLILHTDMLLQRKEELLAKEKIEEIFLAHQTGRQLTAESMNWLHNILWRQAASSFEVQNYTDALQWYYYSLRFYSTDEMDLDFTKLQRNMACCYLNLQQLDKAKEAVAEAERHDPRNVFTQFYIFKIAVIEGNSERALQAIITLENILTDEESEDNDLVAERGSPTMLLSLAAQFALENGQQIVAEKALEYLAQHSEDQEQVLTAVKCLLRFLLPKIAEMPESEDKKKEMDRLLTCLNRAFVKLSQPFGEEALSLESRANEAQWFRKTAWNLAVQCDKDPVMMREFFILSYKMSQFCPSDQVILIARKTCLLMAVAVDLEQGRKASTAFEQTMFLSRALEEIQTCNDIHNFLKQTGTFSNDSCEKLLLLYEFEVRAKLNDPLLESFLESVWELPHLETKTFETIAIIAMEKPAHYPLIALKALKKALLLYKKEEPIDISQYSKCMHNLVNLSVPDGASNVELCPLEEVWGYFEDALSHISRTKDYPEMEILWLMVKSWNTGVLMFSRSKYASAEKWCGLALRFLNHLTSFKESYETQMNMLYSQLVEALSNNKGPVFHEHGYWSKSD
In assay [1], B4 showed an HIV_LTR transactiv. of 4.41 fold change.

B5: C20orf141: human host interactor protein, Gene ID 128653, expressed from transfected ORF vector (protein)
chain: MTRLCLPRPEAREDPIPVPPRGLGAGEGSGSPVRPPVSTWGPSWAQLLDSVLWLGALGLTIQAVFSTTGPALLLLLVSFLTFDLLHRPAGHTLPQRKLLTRGQSQGAGEGPGQQEALLLQMGTVSGQLSLQDALLLLLMGLGPLLRACGMPLTLLGLAFCLHPWA
Molecule B5 registered an HIV_LTR transactiv. in assay [1] of 0.35 fold change. In assay [2], the HTLV_LTR transactiv. is 2.80 fold change.

B6: TRAF2: human host interactor protein, Gene ID 7186, expressed from transfected ORF vector (protein)
chain: MAAASVTPPGSLELLQPGFSKTLLGTKLEAKYLCSACRNVLRRPFQAQCGHRYCSFCLASILSSGPQNCAACVHEGIYEEGISILESSSAFPDNAARREVESLPAVCPSDGCTWKGTLKEYESCHEGRCPLMLTECPACKGLVRLGEKERHLEHECPERSLSCRHCRAPCCGADVKAHHEVCPKFPLTCDGCGKKKIPREKFQDHVKTCGKCRVPCRFHAIGCLETVEGEKQQEHEVQWLREHLAMLLSSVLEAKPLLGDQSHAGSELLQRCESLEKKTATFENIVCVLNREVERVAMTAEACSRQHRLDQDKIEALSSKVQQLERSIGLKDLAMADLEQKVLEMEASTYDGVFIWKISDFARKRQEAVAGRIPAIFSPAFYTSRYGYKMCLRIYLNGDGTGRGTHLSLFFVVMKGPNDALLRWPFNQKVTLMLLDQNNREHVIDAFRPDVTSSSFQRPVNDMNIASGCPLFCPVSKMEAKNSYVRDDAIFIKAIVDLTGL
Turning to B6, in assay [1], the HIV_LTR transactiv. was 0.22 fold change.
